According to US20100015637A1 (AbbVie / Abbott, published 2010):
Values belong to the molecule of their own block, whether it stands above or below them.

Assays:
[1] = molecular target: human PlGF-1 comprising amino acids 1-137 produced in human embryonic kidney cells (human) (UniProt P49763); test: Format 2 …, capture MAb264, detection Pb264; sFlt-1 3067 pmol/L (ratio 100)
[2] = molecular target: T1, human PlGF-1 fragment (comprising amino acids 17-131) produced in human embryonic kidney cells (human, UniProt P49763 35-221); test: … sandwich, capture MAb255, detection MAb826; antigen 15 pg/mL
T1 sequence: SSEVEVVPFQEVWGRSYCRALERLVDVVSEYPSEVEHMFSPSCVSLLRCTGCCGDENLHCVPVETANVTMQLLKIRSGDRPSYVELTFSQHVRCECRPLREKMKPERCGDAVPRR
How it was run: (§1)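 Human PlGF-1 antigen preparations, including recombinant forms expressed in CHO cells, were tested at 0 to 1500 pg/mL in a sandwich immunoassay. The capture antibody was a monoclonal anti-human PlGF-1 antibody immobilized on magnetic microparticles by passive coating and EDAC cross-linking. Detection used an acridinium ester-labeled monoclonal anti-human PlGF-1 antibody. Signal was recorded as chemiluminescent relative light units (RLU) at each antigen level.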

[3] = molecular target: T2, human PlGF-1 comprising amino acids 1-137 produced in human embryonic kidney cells (human, UniProt P49763 19-221); test: as above
T2 construct: Mature human PlGF-1 with 6xHis tag; also called HEK (1-137); full length HEK human PlGF-1 (1-137)
T2 sequence: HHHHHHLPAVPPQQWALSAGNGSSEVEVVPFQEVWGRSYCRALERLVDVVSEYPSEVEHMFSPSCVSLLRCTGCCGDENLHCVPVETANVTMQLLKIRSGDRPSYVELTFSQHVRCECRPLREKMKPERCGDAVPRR
How it was run: as §1

[4] = molecular target: T3, CHO human PlGF-1 fragment (comprising amino acids 17-131; ATCC PTA-8540) (human, UniProt P49763 35-221); test: … sandwich, capture MAb255, detection pAb264; antigen 750 pg/mL
T3 sequence: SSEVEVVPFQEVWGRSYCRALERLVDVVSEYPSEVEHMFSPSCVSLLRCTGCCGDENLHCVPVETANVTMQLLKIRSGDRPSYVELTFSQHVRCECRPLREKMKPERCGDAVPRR

[5] = molecular target: T1, human PlGF-1 fragment (comprising amino …); test: as above
[6] = molecular target: T2, human PlGF-1 comprising amino acids …; test: as above
[7] = molecular target: T4, CHO human PlGF-1 comprising amino acids 1-137 (human PlGF-1-His (1-131), CHO 6305) (human, UniProt P49763 19-221, N-glycans at N21 (completely glycosylated) and N89 (partially glycosylated)); test: as above
T4 construct: Mature human PlGF-1 with 6xHis tag (137 amino acids); also called CHO (1-137)
T4 sequence: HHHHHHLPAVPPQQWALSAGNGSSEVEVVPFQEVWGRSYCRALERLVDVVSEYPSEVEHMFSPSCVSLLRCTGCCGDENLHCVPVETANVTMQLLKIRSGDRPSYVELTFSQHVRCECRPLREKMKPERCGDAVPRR

[8] = molecular target: T3, CHO human PlGF-1 fragment (comprising …); test: … sandwich, capture MAb255, detection MAb826; antigen 250 pg/mL
How it was run: as §1

[9] = molecular target: T1, human PlGF-1 fragment (comprising amino …); test: as above
How it was run: as §1

[10] = molecular target: T2, human PlGF-1 comprising amino acids …; test: as above
How it was run: as §1

[11] = molecular target: T4, CHO human PlGF-1 comprising amino acids …; test: as above
How it was run: as §1

[12] = molecular target: T3, CHO human PlGF-1 fragment (comprising …); test: … sandwich, capture MAb826, detection pAb264; antigen 60 pg/mL
[13] = molecular target: T1, human PlGF-1 fragment (comprising amino …); test: as above
[14] = molecular target: T2, human PlGF-1 comprising amino acids …; test: as above
[15] = molecular target: T4, CHO human PlGF-1 comprising amino acids …; test: as above
[16] = molecular target: T3, CHO human PlGF-1 fragment (comprising …); test: … sandwich, capture MAb826, detection pAb264; antigen 250 pg/mL
[17] = molecular target: T2, human PlGF-1 comprising amino acids …; test: as above
[18] = molecular target: T4, CHO human PlGF-1 comprising amino acids …; test: as above

% Inhibition [1]: 95.7% | PlGF-1 Measured [1]: 33.8 pg/mL
Molecule: native sFlt-1, isolated from human placental tissue (from UniProt P17948 27-687) (receptor)

RLU [2]: 17200 RLU | RLU [3]: 26700 RLU | RLU [4]: 713000 RLU | RLU [5]: 908000 RLU | RLU [6]: 1.31e+06 RLU | RLU [7]: 599000 RLU | RLU [8]: 144000 RLU | RLU [9]: 207000 RLU | RLU [10]: 367000 RLU | RLU [11]: 153000 RLU
B1: monoclonal antibody 1-255-713 (produced by murine hybridoma cell line 1-255-713, ATCC PTA-8536) (antibody, mouse IgG2a, V domains shown)
VH: QVHLQQSGAELMKPGASVKISCKATGYTFSSYWIEWVKQRPGHGLEWIGEILPGSVSNNFNEKFKDKATLTADPSSNTAYIQVSSLTSEDSAVYYCARSTGFYYGGNYFDHWGQGTTLAVSS
VL: DVVMTQTPLSLPVSPGDQASISCRSSQSLVHSNGHTYLHWYLQKPGQSPKLLIYKVSNRFSGVPDRVSGSGSGTDFTLKISRVEAEDLGVYFCSQSTHVPPTFGGGTKLEIKR
notes: also called MAb255

RLU [12]: 28200 RLU | RLU [13]: 36900 RLU | RLU [14]: 47700 RLU | RLU [15]: 22200 RLU | RLU [16]: 93600 RLU | RLU [17]: 173000 RLU | RLU [18]: 66100 RLU
B2: monoclonal antibody 2-826-335 (produced by murine hybridoma cell line 2-826-335, ATCC PTA-8539) (antibody, mouse IgG1, V domains shown)
VH: QVQLKQSGPGLVQPSQSLSITCTVSGFSLTTYGIHWVRQSPGKGLEWLGVMWSGGDTDYDAAFISRLSISKDNSKSQVFFKMNSLQANDTGIYYCARYRFYGMDYWGQGTSVTVSS
VL: AIQMTQSSSSFSVSLGDRVTITCKASEDIYNRFAWYQQKPGNAPRLLISGAASLEAGVPSRFSGSGSGQDYTLSITSLQTEDVATYYCQQYWSTPWTFGGGTKLEIKR
notes: also called MAb826
